# Data published in US20210284749A1.
# B1: J6MO (antibody, INN chains, looked up, V domains shown)
# VH: QVQLVQSGAEVKKPGSSVKVSCKASGGTFSNYWMHWVRQAPGQGLEWMGATYRGHSDTYYNQKFKGRVTITADKSTSTAYMELSSLRSEDTAVYYCARGAIYDGYDVLDNWGQGTLVTVSS
# VL: DIQMTQSPSSLSASVGDRVTITCSASQDISNYLNWYQQKPGKAPKLLIYYTSNLHSGVPSRFSGSGSGTDFTLTISSLQPEDFATYYCQQYRKLPWTFGQGTKLEIK
# Molecular target: human BCMA-Fc (R&D system, 193-BC-050) (human) (UniProt Q02223)
# Test: competition ELISA on coated human BCMA-Fc; antibody titrated and mixed with 200 ng/ml BAFF, bound BAFF detected, absorbance 450 nm
# human BCMA-Fc (R&D system, 193-BC-050) (human), sequence (Q02223 1-54 limits assumed): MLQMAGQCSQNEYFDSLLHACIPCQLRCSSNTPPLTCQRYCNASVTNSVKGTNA
binder,measurement,value
B1,IC50 (read off the curve),4 nM
